Values of other authors in PMC5520056, “Cryo-EM structures of the ATP-bound Vps4^E233Q hexamer and its complex with Vta1 at near-atomic resolution” (Nature Communications, 2017).

Target: Vta1 VSL (Saccharomyces cerevisiae) (UniProt Q06263)
Sequence (Q06263 280-330): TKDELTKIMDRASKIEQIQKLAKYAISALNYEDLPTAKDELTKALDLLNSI

Chain of Vps4 β-domain (P52917 351-397): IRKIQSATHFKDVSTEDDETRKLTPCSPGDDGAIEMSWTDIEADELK

Question: For Vps4 β-domain (from UniProt P52917), which Kd is on record?
Answer: Its Kd is 85 µM.
